This note sets out measurements from article PMC4674563.

In the assay the target is Photosystem II core complex from solubilized grana (SG-PSII) (Nicotiana tabacum (endogenous in thylakoids) | Nicotiana tabacum) (UniProt P69556). Put plainly: SEC + native gel or EMSA; Ni-NTA-purified PSII pools on Superose 6 in 40 mM MES-NaOH pH 6.5, 20 mM NaCl, 5 mM MgCl2, 1 mM CaCl2, 10 mM NaHCO3, 0.01% β-DDM; pools and fractions checked by BN-PAGE (3-12% gradient, 4°C); C2 also seen by negative-stain TEM. (Mobility shift assays separate free from complexed probe on a gel.)

Take “Photosystem II core complex from solubilized grana (SG-PSII) (from UniProt P69556 1-344; P06411 1-508; P06413 15-473; P69686 1-353; P69384 1-83; P06415 1-73; P60139 1-38; Q40519 38-136)”: the stoichiometry N is 2.

As a reminder, the stoichiometry N is a count of units in the complex or per binding partner.
